Where no end group is shown, it is not given here. The star is where a group is joined. Biotin = O=C1N[C@H]2[C@H](CS[C@H]2CCCCC(=O)*)N1
How the values were obtained:
[1] = target: T1, human tau (hT40) with P301S and G335D of Line 66 mice (human, UniProt P10636 1-758); experiment: Western blot
T1 construct: transgene product in brain homogenate or plasma; also called L66 human tau

[2] = target: T2, full length human tau protein 2N4R (hT40) (human, UniProt P10636 1-758); experiment: SPR, hT40 immobilised, mAb analyte
T2 construct: recombinant; also called T441
T2 sequence (P10636 other isoform, or with tags, fused parts or gaps limits assumed): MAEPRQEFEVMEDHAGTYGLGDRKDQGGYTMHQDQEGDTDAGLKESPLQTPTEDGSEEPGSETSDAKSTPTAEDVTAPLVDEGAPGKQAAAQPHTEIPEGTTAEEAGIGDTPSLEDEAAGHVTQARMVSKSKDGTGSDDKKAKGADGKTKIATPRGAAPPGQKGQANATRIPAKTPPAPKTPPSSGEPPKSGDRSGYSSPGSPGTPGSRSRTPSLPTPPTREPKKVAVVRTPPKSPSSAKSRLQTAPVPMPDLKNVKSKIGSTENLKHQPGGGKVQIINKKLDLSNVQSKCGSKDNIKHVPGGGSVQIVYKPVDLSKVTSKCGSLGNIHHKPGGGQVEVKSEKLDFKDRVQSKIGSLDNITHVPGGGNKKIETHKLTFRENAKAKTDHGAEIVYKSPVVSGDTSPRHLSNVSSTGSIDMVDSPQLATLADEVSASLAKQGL

[3] = target: T3, aggregated dGAE (human, UniProt P10636 614-708, limits assumed); experiment: capture ELISA, mAb coated at 1 µg/ml, aggregates titrated, S1D12 scAb detection
T3 construct: dGAE aggregated in vitro with DTT, 700 rpm, 37 C, 24 h; also called dGAE aggregates; dGAE agg

[4] = target: T2, full length human tau protein 2N4R …; experiment: SPR, summary table
Method in brief: (§1)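 scAb captured on flow cell 2 of an antibody-coated chip, flow cell 1 as reference; tau analyte injected 120 s association, 420 s dissociation, glycine pH 2.0 regeneration, in multi-cycle or single-cycle kinetics format. Responses fitted to a 1:1 binding model for kinetics and affinity.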

[5] = target: T2, full length human tau protein 2N4R …; experiment: hT40 ELISA
[6] = target: tau fragment 266-359 (R1-3) (human, UniProt P10636 583-676); experiment: direct ELISA
tau fragment 266-359 (R1-3), sequence (P10636 583-676): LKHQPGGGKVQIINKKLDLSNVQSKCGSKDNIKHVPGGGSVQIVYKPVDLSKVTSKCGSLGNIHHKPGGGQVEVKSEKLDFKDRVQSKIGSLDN

[7] = target: T2, full length human tau protein 2N4R …; experiment: SPR, scAb captured, tau analyte
Method in brief: as §1

[8] = target: T4, dGAE (tau 297-391) (human, UniProt P10636 614-708); experiment: sandwich ELISA, 423 mAb capture, dGAE titrated, scAb at 10 µg/ml [D00041 Figure 34 cont. O]
T4 construct: monomer; also called dGAE95

[9] = target: T4, dGAE (tau 297-391); experiment: sandwich ELISA, 423 mAb capture, dGAE titrated, scAb at 10 µg/ml
[10] = target: T2, full length human tau protein 2N4R …; experiment: Biacore
Method in brief: as §1

[11] = target: T2, full length human tau protein 2N4R …; experiment: sandwich ELISA, S1D12 mAb capture, scAb detection
Method in brief: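 Read-out was HRP anti-HuCk with absorbance at 450 nm (positive above 0.3 after background subtraction) or chemiluminescence, including directly HRP-conjugated scAbs.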

[12] = target: T5, tau parent peptide 355-367 (GSLDNITHVPGGG); experiment: ELISA on biotinylated peptide over streptavidin
T5 peptide: Biotin-GSLDNITHVPGGG
Procedure: Briefly, 5 μg/ml streptavidin (Thermo Fisher) was adsorbed to Nunc 96-well MaxiSorp plates and following incubation at 37° C. for 1 h, the plates were washed as normal and blocked with 2% MPBS. N-terminally biotinylated peptides (Prolmmune Ltd) were added to the plates and incubated for 1 h at 37° C. Subsequently, test scAbs at starting concentrations of 100-500 nM was added and double diluted across the plate for each peptide and incubated for 1 h at 37° C. Rest of the ELISA was conducted as described above and the plates were read at absorbance 450 nm. Immunoreactivity of the scAb of interest was quantified as the % of scAb was bound for each peptide at a chosen concentration (FIG. 15-20).

[13] = target: T4, dGAE (tau 297-391); experiment: sandwich ELISA, 423 mAb capture, dGAE titrated, scAb at 10 µg/ml; remark: listed apart in the source
[14] = target: T2, full length human tau protein 2N4R …; experiment: direct ELISA
Procedure: (§2) A series of binding ELISA was performed using various truncated versions of the tau protein and 13mer peptide libraries spanning the entire hT40 molecule for mapping the epitopes of anti-tau scAbs (Full list of protein antigens used is given in Table 14). In general, ELISA plates were coated with 1 μg/ml hT40 or dGA or dGAE or other truncated versions of the protein and in the case of biotinylated peptides, plates were coated with 5 μg/ml Streptavidin followed by 1 μg/ml biotinylated peptide. The plates were blocked with 2% MPBS and scAb samples added at desired starting concentrations and double diluted across the plate. Binding was detected using anti-Human C Kappa HRP conjugated secondary antibody and the resulting immunoreaction was developed and absorbance values measured as described above.

[15] = target: T4, dGAE (tau 297-391); experiment: direct ELISA
Procedure: as §2

[16] = target: T6, dGA (tau 297-390) (human, UniProt P10636 614-707); experiment: direct ELISA
Procedure: as §2

[17] = target: T3, aggregated dGAE; experiment: ELISA, direct immobilisation, SDS + Triton treated dGAE aggregates
[18] = target: T3, aggregated dGAE; experiment: sandwich ELISA, S1D12 mAb capture, SDS + Triton treated dGAE aggregates
Procedure: (§3) For aggregation, 1000 μL 100 μM dGAE+10 μL 10 mM DTT was added to a ‘LoBind’ microfuge tubes and agitated at 700 RPM/37° C. for 24 hours. Resulting sample centrifuged at 17,000×g/4° C. for 60 min and supernatant discarded to remove left over monomer. Pellet resuspended in half the original volume for future experiments and hereafter referred to as ‘aggregates’. 1 μl of aggregates was added to 1 ml of PBS and SDS was added to a final concentration of 1% (w/v). This was left to incubate on lab bench for 1 h with gentle agitation every 15 minutes. In order to neutralize the SDS effect on ELISA, Triton X-100 added to a final concentration of 3% (v/v) and mixed gently by pipetting to prevent any bubble formation. […] Similarly aggregates treated with only SDS or Triton X-100, untreated aggregates, dGAE monomers treated with only SDS or SDS+Titon X-100 were also added to designated wells as controls. All samples were then double diluted across the plate in final volumes of 100 μl. The final column was left with no protein to act as a blank.

[19] = target: T4, dGAE (tau 297-391); experiment: sandwich ELISA, 423 mAb capture, dGAE titrated, scAb at 10 µg/ml [D00039 Figure 34 cont. F]
[20] = target: T7, tau fragment 186-350 (human, UniProt P10636 503-667); experiment: direct ELISA
T7 construct: also called m186-350
T7 sequence (P10636 503-667): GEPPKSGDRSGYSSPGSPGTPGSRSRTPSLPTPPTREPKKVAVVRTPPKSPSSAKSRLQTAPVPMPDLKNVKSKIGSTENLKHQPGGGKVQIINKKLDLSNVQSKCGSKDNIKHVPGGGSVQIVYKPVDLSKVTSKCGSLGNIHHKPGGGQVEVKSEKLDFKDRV

[21] = target: tau fragment 337-368 (human); experiment: direct ELISA
tau fragment 337-368 (human), sequence (peptide, as listed by the source): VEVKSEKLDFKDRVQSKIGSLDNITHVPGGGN

[22] = target: T8, tau fragment 369-390 (human); experiment: direct ELISA
T8 peptide: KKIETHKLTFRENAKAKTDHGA

[23] = target: T9, tau fragment 369-391 (human); experiment: direct ELISA
T9 peptide: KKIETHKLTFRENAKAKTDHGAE

[24] = target: T6, dGA (tau 297-390); experiment: SPR, scAb captured, tau analyte
Method in brief: as §1
Target sequence in this assay (P10636 614-707 limits assumed): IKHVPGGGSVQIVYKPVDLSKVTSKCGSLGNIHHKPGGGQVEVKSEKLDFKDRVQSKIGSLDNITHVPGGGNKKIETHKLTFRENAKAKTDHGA

[25] = target: T10, tau parent peptide 367-379 (GNKKIETHKLTFR) (human); experiment: ELISA on biotinylated peptide over streptavidin
T10 peptide: Biotin-GNKKIETHKLTFR

[26] = target: T3, aggregated dGAE; experiment: sandwich ELISA, Triton-treated aggregates titrated, S1D12 mAb capture
Procedure: as §3

T1 sequence (P10636 other isoform, or with tags, fused parts or gaps P301S G335D P301S G335D limits assumed): as the sequence (P10636 other isoform, or with tags, fused parts or gaps limits assumed) above, with P301S, G335D counted along it

B1: S1G2 mAb (antibody, mouse IgG2a, V domains shown)
VH: QVQLQESGPSLVKPSQTLSLTCTVSGFSLTSNSVGWVRQAPGKAPEWVAGIDTDGEEGYNPALNSRLSITRDTSKSQVSLSLSSVTSEDTAVYYCGRSYRADGLAYGYVQAIDYWGPGLLVTVSS
VL: QAVVTQPSSVSGSLGQRVSITCSGSFIGISSVGWFQQLPGSGLRTIIVASDGRPSGVPDRFSMSKSGNTATLTISSLQAEDEADYFCGSSDRTPYTGVFGSGTRLTVLG
notes: sheep-mouse IgG2a chimeric mAb; also called S1G2 antibody
B1 was tested, and the binding result [1] was “binds”, the Kd [2] was 0.14 nM and the koff [2] was 4.75e-05 s⁻¹. For the same binder, the kon [2] was 340000 M⁻¹ s⁻¹ and the “EC50 (read off the curve)” value [3] was about 30 nM.

B2: CE3 scAb (scFv, not shown: small tags and cut ends)
scFv: QVRLQESGPSLVKPSQTLSVTCTVSGFSLISNAVGWVRQAPGKVPESLAGCSSDGKCYYNSALKSRLDITRDTSKNQISLSLSSVTTDDAAVYYCTRGYYPVYGYDYLGTIDYWGPGLLVTVSSEGKSSGASGESKVDDQAVLTQPSSVSGSLGQRVSITCSGSSSNVGRNDVAWFQQLPGSGLRTIIYGTTSRPSGIPDRFSGSKSGVTATLTIDSLQAEDEADYFCASGDSSAINDIFGSGTRLTVLG
notes: scAb
In the case of B2, the Kd [4] is reported as 3.79 nM, the “EC50 (read off the curve)” value [5] is reported as about 0.1 mg/L and the “EC50 (read off the curve)” value [6] is reported as about 0.3 mg/L. It also gave a Kd [7] of 3.79 nM, a koff [7] of 0.000662 s⁻¹ and a kon [7] of 174000 M⁻¹ s⁻¹. For the same binder, the “EC50 (read off the curve)” value [8] was about 0.3 mg/L.

B3: CB3 scAb (scFv, not shown: small tags and cut ends)
scFv: QVQLQESGPSLVKPSQTLSLTCTVSGFSLSSVAVNWVRQAPGKVPEWLGGIISNGGTGYNPALKSRLSITRDTSKSQVSLALTHVTTEDTAVYYCGRGVEWEGSMDYLGPGLLVTVSSEGKSSGSGSETKVDDQSVLTQPSSVSGFLGQRVTITCSGSSSNVGAGSYVGWYQQVPGSGLRILIYGATKRASGLPDRFSGSRSGNTATLTISSLQAEDEADYYCVSYQTDFTLVFGSGTRLTVLG
notes: scAb
B3 was tested, and the “EC50 (read off the curve)” value [9] was about 0.4 mg/L.

B4: CA4 scAb (scFv, not shown: small tags and cut ends)
scFv: QVQLQESGPSLVKPSQTLSLTCTVSGFSLTSYSVYWVRQAPGQALEWISIMYASGRVDYNPALKSRLSITRDTSKSQFSLSLSSVTTEDTAVYYCTRGIENWGPGLLVTVSSEGKSSGASGESKVDDDIQVTQSPSSLSASLTERVSITCRTSQSVNNYLSWYQQKPGQAPKLLIYYATRLYTDVPSRFSGSGSGTDYTLTITSLEADDTATYYCLQYDSTPLAFGGGTNVEIK
notes: scAb
In the case of B4, the Kd [10] is reported as 3.6 nM, the Kd [4] is reported as 3.61 nM and the Kd [7] is reported as 3.61 nM. It also gave a koff [7] of 0.00165 s⁻¹, a kon [7] of 458000 M⁻¹ s⁻¹ and a LoD chemiluminescence detection [11] of 0.37 ng/mL. The LoD colourimetric detection [11] was 6 ng/mL, the binding result [12] was “binds” and the “EC50 (read off the curve)” value [13] was about 0.3 mg/L.

B5: E2B7 scAb (scFv, not shown: small tags and cut ends)
scFv: QVQLQESGPSLVKPSQTLSLTCTVSGFSLTSWGVAWVRQAPGKALEWLGTMRSGGGTEYNPALKSRLSITRDTSKSQVSLSLSSVTTEDMAMYYCARGYLSGIHYAWGRGLLVSVSSEGKSSGASGESKVDDQAVLTQLSSVSGSLGQRVSITCSGSSSNVGDGDYVGWFQQLPGSAPKLLIYSARNRASGVPDRFSGSRSGNTATLTITSLQAEDEADYYCASIDTSRSHIFGSGTRLTVLG
notes: scAb
In the case of B5, the binding result [14] is reported as “no binding (tested: 25 ug/ml)”, the “EC50 (read off the curve)” value [15] is reported as about 0.1 mg/L and the binding result [16] is reported as “no binding (tested: 25 ug/ml)”.

B6: CA9 scAb (scFv, not shown: small tags and cut ends)
scFv: QVQLQESGPSLVKPSQTLSLTCTVSGFSLTSNSVGWVRQAPGKAPEWVAGIDTDGEEGYNPALNSRLSITRDTSKSQVSLSLSSVTSEDTAVYYCGRSYRSDGLAYGYVQAIDYWGPGLLVTVSSEGKSSGASGESKVDDQAVLTQPASVSGSLGQRVSITCSGSFIGISSVGWFQQLPGSGLRTIIVASDGRPSGVPDRFSMSKSGNTATLTISSLQAEDEADYFCGSSDRTQYTGVFGSGTRLTVLG
notes: scAb
In the case of B6, the LoD [17] is reported as 40 ng/mL, the LoD [18] is reported as 4 ng/mL and the “EC50 (read off the curve)” value [19] is reported as about 0.2 mg/L.

B7: S1G2 scAb (scFv, not shown: small tags and cut ends)
scFv: QVQLQESGPSLVKPSQTLSLTCTVSGFSLTSNSVGWVRQAPGKAPEWVAGIDTDGEEGYNPALNSRLSITRDTSKSQVSLSLSSVTSEDTAVYYCGRSYRADGLAYGYVQAIDYWGPGLLVTVSSEGKSSGASGESKVDDQAVVTQPSSVSGSLGQRVSITCSGSFIGISSVGWFQQLPGSGLRTIIVASDGRPSGVPDRFSMSKSGNTATLTISSLQAEDEADYFCGSSDRTPYTGVFGSGTRLTVLG
notes: scAb
With B7 the Kd [10] was 0.6 nM, the Kd [4] was 0.17 nM and the binding result [20] was “no binding (tested: 25 ug/ml)”. For the same binder, the binding result [21] was “no binding (tested: 25 ug/ml)”, the “EC50 (read off the curve)” value [22] was about 0.4 mg/L and the “EC50 (read off the curve)” value [23] was about 0.5 mg/L. For the same binder, the Kd [7] was 0.17 nM, the koff [7] was 0.00018 s⁻¹ and the kon [7] was 1.06e+06 M⁻¹ s⁻¹. For the same binder, the Kd [24] was 0.447 nM, the koff [24] was 0.00035 s⁻¹ and the kon [24] was 783000 M⁻¹ s⁻¹. The LoD chemiluminescence detection [11] was 0.12 ng/mL, the LoD colourimetric detection [11] was 2 ng/mL and the “EC50 (read off the curve)” value [25] was about 10 mg/L. For the same binder, the LoD [17] was 16 ng/mL, the LoD [18] was 2 ng/mL and the “EC50 (read off the curve)” value [26] was about 0.05 mg/L.

— patent US20250355001A1 (GTINVENT, published 2025)
